# Measured values taken from paper PMC4373793.
# pKd: −log10 of the molar value. Values joined by “and” are separate entries in the source; they are usually repeats but may differ in a detail not shown here. Equal values may be shown once.
# Tests used:
# [1] = biological target: Human Glu-plasminogen (circulating form of human plasminogen) (human); assay: ELISA; plate coated with serial dilutions of Glu-plasminogen (carbonate buffer pH 9.6); wells incubated with 5 ug wild-type or mutant SEN; apparent KD, one-site specific binding
# [2] = biological target: Streptococcal surface enolase (SEN), wild-type, group A Streptococcus (Streptococcus pyogenes) (Streptococcus pyogenes (group A Streptococcus)) (UniProt P69949); assay: crystal structure; hanging drop, 1-3.5 M sodium/potassium phosphate pH 5-7.5, 2% PEG 400; space group P4; octamer = tetramer of dimers
# [3] = biological target: Streptococcal surface enolase (SEN), wild-type, group A Streptococcus (Streptococcus pyogenes) (Streptococcus pyogenes (group A Streptococcus)) (UniProt P69949); assay: native MS; Superdex-200 in 200 mM NH4OAc pH 6.8, peak fractions pooled, Synapt HDMS under conditions that preserve non-covalent interactions; single peak of wild type and K312A, elution peak 1 of K362A
# [4] = biological target: Human Glu-plasminogen (circulating form of human plasminogen) (human); assay: SPR; BIAcore 3000; Glu-plasminogen immobilised on a CM5 chip (~10,000 RU; also a lower-density surface ~1,000 RU); 100 nM SEN injected 500 s at room temperature in 10 mM HEPES pH 7.4, 0.15 M NaCl, 3 mM EDTA, 0.005% P20, 30 ul/min; kinetic models could not be fitted, assessed qualitatively
# [5] = biological target: Streptococcal surface enolase mutant SEN^K312A (Streptococcus pyogenes (group A Streptococcus)) (UniProt P69949); assay: crystal structure; hanging drop, 1-3.5 M sodium/potassium phosphate pH 5-7.5, 2% PEG 400; space group P4; octamer = tetramer of dimers
# [6] = biological target: Streptococcal surface enolase mutant SEN^K312A (Streptococcus pyogenes (group A Streptococcus)) (UniProt P69949); assay: native MS; Superdex-200 in 200 mM NH4OAc pH 6.8, peak fractions pooled, Synapt HDMS under conditions that preserve non-covalent interactions; single peak of wild type and K312A, elution peak 1 of K362A
# [7] = biological target: Streptococcal surface enolase mutant SEN^K362A (Streptococcus pyogenes (group A Streptococcus)) (UniProt P69949); assay: crystal structure; hanging drop, 1-3.5 M sodium/potassium phosphate pH 5-7.5, 2% PEG 400; space group P4; octamer = tetramer of dimers
# [8] = biological target: Streptococcal surface enolase mutant SEN^K362A (Streptococcus pyogenes (group A Streptococcus)) (UniProt P69949); assay: native MS; Superdex-200 in 200 mM NH4OAc pH 6.8, peak fractions pooled, Synapt HDMS under conditions that preserve non-covalent interactions; single peak of wild type and K312A, elution peak 1 of K362A
Substance,pKd [1],stoichiometry N [2],stoichiometry N [3],percent increase in plasminogen binding (against wild-type SEN) [4] [%],stoichiometry N [5],stoichiometry N [6],stoichiometry N [7],stoichiometry N [8]
"Streptococcal surface enolase (SEN), wild-type, group A Streptococcus (Streptococcus pyogenes) (from UniProt P69949 1-435) (enzyme)",7.85,8,8,,,,,
Streptococcal surface enolase mutant SEN^K312A (from UniProt P69949 1-435) (enzyme),7.71,,,196,8,8,,
Streptococcal surface enolase mutant SEN^K362A (from UniProt P69949 1-435) (enzyme),8.73,,,341,,,8,8 and 7
